From article PMC4982705 (Biochemical pharmacology, 2016)

Biological target: the molecule itself
Experiment: SEC

B1: wildtype human SULT1B1 (enzyme)
chain: not shown
  stoichiometry N: 2
